{"source": "paper PMC2150902", "about": "(The Journal of Cell Biology, 2001)", "proteins": {"B1": {"name": "Δ9-Sar1A (hamster Sar1 lacking residues 2–9), GDP-bound form (domain or fragment)", "chain": "not shown"}}, "target": "the molecule itself", "experiment": "dynamic light scattering"}
{"protein": "B1", "values": [{"measurement": "stoichiometry N", "result": 2}]}
